The results in this text go back to paper doi:10.1101/2022.05.14.491971.

The target in the experiment is Mab3862, antitoxin of the type 2 TA class of Mycobacterium abscessus (Mycobacterium abscessus (ATCC 19977)). Put plainly: crystal structure.

One may read the stoichiometry N as a count of units in the complex or per binding partner. Consider “Mab3862, antitoxin of the type 2 TA class of Mycobacterium abscessus (natural protein)”, for which the stoichiometry N was 2.
